Data taken from article PMC6676471.
Where no end group is shown, it is not given here. [ ]: non-standard residue; d: D form. 2Abz = Nc1ccccc1C(=O)O

Molecular target: tcFGE_(W228F), inactive variant of formylglycine generating enzyme from Thermomonospora curvata (Thermomonospora curvata) (UniProt D1A7C3)
Assay: ITC

UniProt D1A7C3, sequence (D1A7C3 20-303 W228F): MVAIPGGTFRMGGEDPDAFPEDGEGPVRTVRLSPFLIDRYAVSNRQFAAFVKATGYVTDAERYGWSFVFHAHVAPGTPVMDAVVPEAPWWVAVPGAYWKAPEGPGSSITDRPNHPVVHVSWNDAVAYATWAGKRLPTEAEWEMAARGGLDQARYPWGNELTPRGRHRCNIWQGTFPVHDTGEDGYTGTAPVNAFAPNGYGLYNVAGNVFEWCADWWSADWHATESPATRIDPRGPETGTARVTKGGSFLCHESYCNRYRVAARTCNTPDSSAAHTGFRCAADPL

Binder: [2Abz]ATTPLCGPSRASILSGR [FGE-27: Abz-…]
- Kd: 40 nM
